Target: T1, Rab14 (fluorescence titration) (human, UniProt P61106 1-215)
T1 construct: Rab14
Test: other fluorescence titration; fluorescence titration assay (Supplementary Fig. 8); conditions not stated in the text shown
Conditions: both partners purified

Kd: ~0.36 nM
B1: CHML (fluorescence titration) (natural protein)
chain: MADNLPTEFDVVIIGTGLPESILAAACSRSGQRVLHIDSRSYYGGNWASFSFSGLLSWLKEYQQNNDIGEESTVVWQDLIHETEEAITLRKKDETIQHTEAFCYASQDMEDNVEEIGALQKNPSLGVSNTFTEVLDSALPEESQLSYFNSDEMPAKHTQKSDTEISLEVTDVEESVEKEKYCGDKTCMHTVSDKDGDKDESKSTVEDKADEPIRNRITYSQIVKEGRRFNIDLVSKLLYSQGLLIDLLIKSDVSRYVEFKNVTRILAFREGKVEQVPCSRADVFNSKELTMVEKRMLMKFLTFCLEYEQHPDEYQAFRQCSFSEYLKTKKLTPNLQHFVLHSIAMTSESSCTTIDGLNATKNFLQCLGRFGNTPFLFPLYGQGEIPQGFCRMCAVFGGIYCLRHKVQCFVVDKESGRCKAIIDHFGQRINAKYFIVEDSYLSEETCSNVQYKQISRAVLITDQSILKTDLDQQTSILIVPPAEPGACAVRVTELCSSTMTCMKDTYLVHLTCSSSKTAREDLESVVKKLFTPYTETEINEEELTKPRLLWALYFNMRDSSGISRSSYNGLPSNVYVCSGPDCGLGNEHAVKQAETLFQEIFPTEEFCPPPPNPEDIIFDGDDKQPEAPGTNNVVMAKLESSEESKNLESPEKHLQN
notes: choroideremia-like (CHML, REP2)

Source: article PMC6555802, “CHML promotes liver cancer metastasis by facilitating Rab14 recycle” (Nature Communications, 2019)
